# Legend:
# [1] = system: CCR5A R18 TALEN canonical ELD/KKR (Artificial (Xanthomonas TALE-FokI)); experiment: cell_activity
# [2] = system: CCR5A R18 TALEN Q3 ELD/KKR (Artificial (Xanthomonas TALE-FokI)); experiment: cell_activity
# [3] = system: CCR5A R18 TALEN Q7 ELD/KKR (Artificial (Xanthomonas TALE-FokI)); experiment: cell_activity
# [4] = system: CCR5B L10 TALEN (Artificial (Xanthomonas TALE-FokI)); experiment: cleavage_in_vitro; details: as L10+R10 pair
# [5] = system: ATM L18 TALEN N1 EL/KK (Artificial (Xanthomonas TALE-FokI)); experiment: cleavage_in_vitro; details: as pair, 12 nM
# [6] = system: ATM L18 TALEN N2 EL/KK (Artificial (Xanthomonas TALE-FokI)); experiment: cleavage_in_vitro; details: as pair, 12 nM
# [7] = system: ATM L18 TALEN N3 EL/KK (Artificial (Xanthomonas TALE-FokI)); experiment: cleavage_in_vitro; details: as pair, 12 nM
# [8] = system: ATM L18 TALEN Q3 EL/KK (Artificial (Xanthomonas TALE-FokI)); experiment: cleavage_in_vitro; details: as pair, 12 nM
# [9] = system: ATM L18 TALEN Q7 EL/KK (Artificial (Xanthomonas TALE-FokI)); experiment: cleavage_in_vitro; details: as pair, 12 nM
# [10] = system: ATM L18 TALEN canonical EL/KK (Artificial (Xanthomonas TALE-FokI)); experiment: cleavage_in_vitro; details: as L18+R18 pair, 12 nM
# [11] = system: ATM R18 TALEN N1 EL/KK (Artificial (Xanthomonas TALE-FokI)); experiment: cleavage_in_vitro; details: as pair, 12 nM
# [12] = system: ATM R18 TALEN N2 EL/KK (Artificial (Xanthomonas TALE-FokI)); experiment: cleavage_in_vitro; details: as pair, 12 nM
# [13] = system: ATM R18 TALEN N3 EL/KK (Artificial (Xanthomonas TALE-FokI)); experiment: cleavage_in_vitro; details: as pair, 12 nM
# [14] = system: ATM R18 TALEN Q3 EL/KK (Artificial (Xanthomonas TALE-FokI)); experiment: cleavage_in_vitro; details: as pair, 12 nM
# [15] = system: ATM R18 TALEN Q7 EL/KK (Artificial (Xanthomonas TALE-FokI)); experiment: cleavage_in_vitro; details: as pair, 12 nM
# [16] = system: ATM R18 TALEN canonical EL/KK (Artificial (Xanthomonas TALE-FokI)); experiment: cleavage_in_vitro; details: as pair, 12 nM
# [17] = system: CCR5A R18 TALEN 28-aa EL/KK (Artificial (Xanthomonas TALE-FokI)); experiment: cleavage_in_vitro; details: as pair, 16 nM
# [18] = system: CCR5A R18 TALEN N1 EL/KK (Artificial (Xanthomonas TALE-FokI)); experiment: cleavage_in_vitro; details: as pair, 16 nM
# [19] = system: CCR5A R18 TALEN N2 EL/KK (Artificial (Xanthomonas TALE-FokI)); experiment: cleavage_in_vitro; details: as pair, 16 nM
# [20] = system: CCR5A R18 TALEN N3 EL/KK (Artificial (Xanthomonas TALE-FokI)); experiment: cleavage_in_vitro; details: as pair, 16 nM
# [21] = system: CCR5A R18 TALEN Q3 EL/KK (Artificial (Xanthomonas TALE-FokI)); experiment: cleavage_in_vitro; details: as pair, 16 nM
# [22] = system: CCR5A R18 TALEN Q7 EL/KK (Artificial (Xanthomonas TALE-FokI)); experiment: cleavage_in_vitro; details: as pair, 16 nM
# [23] = system: CCR5A R18 TALEN canonical EL/KK (Artificial (Xanthomonas TALE-FokI)); experiment: cleavage_in_vitro; details: as L18+R18 pair, 16 nM
# [24] = system: CCR5B R13 TALEN (Artificial (Xanthomonas TALE-FokI)); experiment: cleavage_in_vitro; details: as L13+R13 pair
# [25] = system: CCR5B R16 TALEN (Artificial (Xanthomonas TALE-FokI)); experiment: cleavage_in_vitro; details: as L16+R16 pair
# [26] = system: CCR5B R10 TALEN (Artificial (Xanthomonas TALE-FokI)); experiment: cleavage_in_vitro; details: as L10+R10 pair
# [27] = system: CCR5B L16 TALEN (Artificial (Xanthomonas TALE-FokI)); experiment: cleavage_in_vitro; details: as L16+R16 pair
# [28] = system: CCR5B L13 TALEN (Artificial (Xanthomonas TALE-FokI)); experiment: cleavage_in_vitro; details: as L13+R13 pair
sequence,measurement,setting,value
GATATCCTTTCTGGAAGA (double strand) [OffC-28 right half-site],activity,"[1]; pair, off-target, 19 bp spacer",0.163 % modified
GGTATCTATCCTGGAATA (double strand) [OffC-15 right half-site],activity,"[1]; pair, off-target, 26 bp spacer",0.23 % modified
AGCATCAATCCTGGAAGA (double strand) [OffC-16 right half-site],activity,"[1]; pair, off-target, 28 bp spacer",0.031 % modified
CTCATCAATTCTGGGTGA (double strand) [OffC-13 right half-site],activity,"[1]; pair, off-target, no indels",< 0.006 % modified
AGGAGCAACTCTGGGAGA (double strand) [OffC-5 right half-site],activity,"[2]; pair, off-target",0.085 % modified
same,activity,"[3]; pair, off-target, no indels detected",< 0.006 % modified
same,activity,"[1]; pair, off-target, 14 bp spacer",2.21 % modified
TTACACCTGC (double strand) [CCR5B L10 half-site],activity (fold enrichment),[4],44
TGAATTGGGATGCTGTTT (double strand) [ATM left half-site],activity (fold enrichment),[5],57.2
same,activity (fold enrichment),[6],119
same,activity (fold enrichment),[7],201
same,activity (fold enrichment),[8],50.4
same,activity (fold enrichment),[9],513
same,activity (fold enrichment),[10],20.5
TTTATTTTACTGTCTTTA (double strand) [ATM right half-site],activity (fold enrichment),[11],57.2
same,activity (fold enrichment),[12],119
same,activity (fold enrichment),[13],201
same,activity (fold enrichment),[14],50.4
same,activity (fold enrichment),[15],513
same,activity (fold enrichment),[16],20.5
AGTATCAATTCTGGAAGA (double strand) [CCR5A right half-site],activity,[2]; pair in U2OS-EGFP cells,24.3 % modified
same,activity,[3]; pair in U2OS-EGFP cells,5.57 % modified
same,activity,[1]; pair in U2OS-EGFP cells,27.6 % modified
same,activity (fold enrichment),[17],70.4
same,activity (fold enrichment),[18],19
same,activity (fold enrichment),[19],41.7
same,activity (fold enrichment),[20],174
same,activity (fold enrichment),[21],18.6
same,activity (fold enrichment),[22],62.3
same,activity (fold enrichment),[23],12.2
CATACAGTCAGTA (double strand) [CCR5B R13 half-site],activity (fold enrichment),[24],113
CATACAGTCAGTATCA (double strand) [CCR5B R16 half-site],activity (fold enrichment),[25],59.4
CATACAGTCA (double strand) [CCR5B R10 half-site],activity (fold enrichment),[26],44
TCTTCATTACACCTGC (double strand) [CCR5B L16 half-site],activity (fold enrichment),[27],59.4
TCATTACACCTGC (double strand) [CCR5B L13 half-site],activity (fold enrichment),[28],113
